Experimental data as given in the RNAGym collection of RNA variant scans (doi:10.1073/pnas.2313332121).

B1: TPR t1 (parent)
chain: GACCAAUCUGCCCUCAGAGCUCGAGAACAUCUUCGGAUGCAGAGGAGGCAGGCUUCGGUGGCGCGAUAGCGCCAACGUCCUCAACCUCCAAUGCAUCCCACCACAUGAUGAUGCCUGAAGAGCCUUGGUUUUUUG

Variants of: B1
Test: polymerase ribozyme fitness, log enrichment relative to wild type (log ratio); higher = more active; in vitro selection for triplet polymerase activity
Outline: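 Both subunits of a heterodimeric triplet polymerase ribozyme were given their own mutant library, built by PCR and transcribed. Each library was annealed with a biotinylated primer, the partner subunit and triplets, incubated frozen at −7 °C, and its extended constructs gel-excised, captured on streptavidin beads and amplified by RT-PCR, all in one round done in triplicate. Fitness is the logarithm of genotype enrichment relative to wild-type enrichment, with replicates averaged by inverse-variance weighting. That logarithm is base 2, and Illumina-sequenced genotypes needed ≥10 input reads and ≥1 read per output.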

Variant	polymerase ribozyme fitness (log ratio)
G61U C82A C89G C101A C102A U112C C123A	-7.12
G63A	-0.907
G63A A75G G122A G127U	-3.17
C62U U78C	-0.402
C62U G117A U131A	-1.44
C62A C98U C123A	-2.16
C62G A84U A108G	-5.29
C62U G110C	-3.93
C62U C73U	-0.0195
G63A G127U	-1.36
C62U A68G C99U U133G	-6.26
G61U U131C	0.233
C62A U132C	-0.866
C62A U132A	-0.682
C62U G93U U112G U129A	-3.65
C62G U131A	-1.42
G63A C82G	-1.41
G61U C72U	-0.409
G63A A121U	0.59
C62U A74C C89A C104A U112C	-2.59
C62U U78A U96C	-0.0957
C62U G120U	-0.189
C62A C72U A75C C85A U129C	-2.55
C62U C115G U129A	-3.05

Variant	polymerase ribozyme fitness (log ratio)
G61U U87G U106A	-0.129
G63A C79U	-1.07
G63A C79G	-3.65
C62A C101U C114U C124A	-3.63
C62A A90G	-0.841
C62U A84G C101A	-1.66
C62U U96A	-0.822
G63A A105G	-3.92
C62G G117A U129G	-6
C62U U131G	-0.5
G63A G117U	-3.18
C62G C73U A83G	-4.25
C62U U112G C115A U126G	-2.54
C62U C124G	1.52
G61U C88U	-0.259
C62U C72U U92C U96C	-2.18
G63A C73A A119C G120C	-1.42
C62U A74U U78A	-0.615
G61U G69U G120A	0.591
G61U G77A U130G	-0.935
C62A G110U	-2.92
C62A G110C	-5.17
C62U G69C C102G U130G	-7.34
G61U G69C C72U A111C	-6.94

Variant	polymerase ribozyme fitness (log ratio)
G61U C62A	-5.14
C62U G77A U87A A111U G122U	-5.7
G63A C101A	-3.39
C62U A84C G117C C124A	-2.09
C62A A75U A111C	-1.81
C62U A108G	-1.69
G63A C115U	-1.45
G61U C89G	-1.53
G61U C79A C99A G120C	-6.8
C62U A111U	-2.55
G61U U87A	-0.452
C62U G128C U133C	-2.74
C62G C101U	-1.28
C62A G113U C114G	-4.19
C62A U78G U87C	-1.47
C62U C94U	-0.381
G61U U78G U112G	0.877
C62G C94U	-1.28
C62U C104U A108C	-6
G61U U109G	-4.68
C62A G120A	-0.339
C62A G120U	0.191
G61U C86A C115U	-1.4
C62G G93U	-2.74

Variant	polymerase ribozyme fitness (log ratio)
C62G G93A	-1.76
C62G A121U	0.647
G61U C104U U116A	-2.46
G61U U81G C86U G120U U133A	-4.06
G61U C70U	-2.03
C62U C80G	-6.35
C62A C79A G117C	-6
G63A C85A	-2.01
G63A C79U A83G C123G	0.0609
G61U C73A U78A	-1.43
G61U U78G C79U G122U	0.33
G61U G120A	0.595
C62G A95U	-2.37
C62A U125G	-1.43
G61U U109A U125A	-5.58
C62A C97U	-1.52
C62U C114G A121C G135A	-1.63
C62G U129A	-3.98
G63A A83G A90G C98G A105C	-7.87
G63A C114A	-1.9
G61U U92A	-2.49
C62U A95U	-2.57
C62U G128C	-3.37
G61U G77C C79U	-0.442

Variant	polymerase ribozyme fitness (log ratio)
G61U G113U	-1.12
C62U C98G	-5.88
C62A C97U U106A	-1.52
C62A A74C	-2.68
C62U G71U G120U	0.0266
C62U U109A G117U A119C	-7.11
C62A U87C	-0.344
G63A C123U	0.883
G61U C104U A108C A121U	-2.95
G63A C98U	-2.12
G63A C98G	-6.74
G61U G107A U112C G122A	-5.04
G63A A90C	-2.84
G63A A84U C115A U125G	-0.899
C62A A68G C72U	-3.88
C62U C89A C124A	0.0858
G63A C64U C73G C80U G93A C97U G117U	-6.14
C62U A74U	-0.71
G63A A83G U106A	-3.25
G63A A66C	-2.96
G63A A66G	-1.9
C62G U87A	-2.48
C62U G113C C124A U133A	-2.07
G61U G93A	0.0678

Variant	polymerase ribozyme fitness (log ratio)
G61U G63A	-4.12
G61U C114G	-1.85
C62U U132A	-0.469
C62U U132C	-0.257
C62U U126G	-3.05
G61U G117C	-2.09
G61U G117U	-1.34
C62U G93C A105U	-3.5
G63A A121C G135A	0.83
C62U C82U	1.12
G61U U96C	0.151
C62A C104A A119U	-3.63
G63A C102U	-3.27
C62G C99U A121G	-4.31
G61U U129G	-1.79
G63A U81A	-2.01
C62G C79U U81A C85A	-6.14
C62A U131A G135A	-2.64
G63A A91G U129A	-3.01
C62A C115U	-2.53
C62U G69C	-3.19
C62G C115A	-1.81
C62U A118G	0.164
G63A C70A A95C	-3.3

Variant	polymerase ribozyme fitness (log ratio)
G61U C102G G120C	-6.46
C62A U130A	-1.33
G61U U133A	-0.172
G63A C94A	-0.982
C62A U131A	-0.5
G63A C82G G117U C123G	-3.95
C62U G113A	-0.93
C62U U78C C94A	-1.92
C62A A90C U112A	-2.63
G63A C97U	-1.46
C62G U87C A111G	-3.32
G63A U96G U112A	-1.56
C62U C76U	-0.133
G63A G135U	-1.49
G61U C72U U131A	-0.274
G63A C73G	-4.71
C62U A95C G113U G135A	-3.24
G61U A111G	0.628
C62U U116A G128A	-5.25
G61U C97A C124A	-2.39
G63A A74U A95U	-3.67
G61U U116A	-3.38
C62G U106C U131A	-2.52
